Laboratory results as given in the supplement of paper PMC9112550, “Optimization of the antimicrobial peptide Bac7 by deep mutational scanning” (BMC Biology, 2022).

Each sequence was assayed on Escherichia coli TOP10 (assay: shrunken log2 fold change of peptide-encoding DNA abundance (4.5 h post-induction vs induction); higher = less antimicrobial activity (less host growth inhibition)). Settings: time post-induction: 4.5 h; library: site-saturation at positions 5, 18, 19, 20.
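Note: peptides expressed intracellularly from a pBAD plasmid library in pooled LB shake-flask culture, induced with 0.3% L-arabinose, DNA abundance read by NGS, three biological replicates, DESeq2 with apeglm shrinkage.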

Row | Sequence | shrunken log2 fold change
1 | RRIRMRPPRLPRPRPRPVDDPRP | -0.0248
2 | RRIRSRPPRLPRPRPRPTRDPRP | 0.701
3 | RRIRVRPPRLPRPRPRPQVVPRP | -0.00557
4 | RRIRMRPPRLPRPRPRPQGGPRP | 0.631
5 | RRIRRRPPRLPRPRPRPMFHPRP | -0.395
6 | RRIRQRPPRLPRPRPRPEGLPRP | -0.0407
7 | RRIRIRPPRLPRPRPRPPHPPRP | 0.154
8 | RRIRIRPPRLPRPRPRPRKAPRP | -0.000442
9 | RRIRSRPPRLPRPRPRPVDHPRP | -0.00391
10 | RRIRQRPPRLPRPRPRPEHLPRP | -0.00142
11 | RRIRCRPPRLPRPRPRPFAIPRP | -0.682
12 | RRIRTRPPRLPRPRPRPMPRPRP | 0.175
13 | RRIRERPPRLPRPRPRPQSEPRP | -0.000579
14 | RRIRMRPPRLPRPRPRPTPQPRP | 1.31
15 | RRIRRRPPRLPRPRPRPERYPRP | 0.00129
16 | RRIRSRPPRLPRPRPRPSGCPRP | 0.208
17 | RRIRWRPPRLPRPRPRPVWGPRP | 0.131
18 | RRIRHRPPRLPRPRPRPAQWPRP | 0.112
19 | RRIRSRPPRLPRPRPRPALAPRP | 0.419
20 | RRIRMRPPRLPRPRPRPVDFPRP | 0.159
21 | RRIRVRPPRLPRPRPRPNDEPRP | -0.352
22 | RRIRCRPPRLPRPRPRPQDHPRP | -0.226

Row | Sequence | shrunken log2 fold change
23 | RRIRPRPPRLPRPRPRPPLQPRP | 0.327
24 | RRIRNRPPRLPRPRPRPPKPPRP | 0.145
25 | RRIRKRPPRLPRPRPRPGFWPRP | 0.537
26 | RRIRDRPPRLPRPRPRPHCMPRP | -0.24
27 | RRIRPRPPRLPRPRPRPEYCPRP | -0.146
28 | RRIRVRPPRLPRPRPRPPKDPRP | 0.219
29 | RRIRWRPPRLPRPRPRPMGGPRP | 0.116
30 | RRIRWRPPRLPRPRPRPPKYPRP | -0.163
31 | RRIRDRPPRLPRPRPRPHGKPRP | 0.0283
32 | RRIRMRPPRLPRPRPRPVTLPRP | -0.393
33 | RRIRWRPPRLPRPRPRPFVSPRP | -0.135
34 | RRIRIRPPRLPRPRPRPGCVPRP | -0.00757
35 | RRIRNRPPRLPRPRPRPHREPRP | -0.00211
36 | RRIRWRPPRLPRPRPRPTNLPRP | -0.0698
37 | RRIRMRPPRLPRPRPRPQHCPRP | -0.458
38 | RRIRWRPPRLPRPRPRPWTVPRP | -0.0123
39 | RRIRARPPRLPRPRPRPMPEPRP | 0.18
40 | RRIRDRPPRLPRPRPRPKLRPRP | -0.0184
41 | RRIRTRPPRLPRPRPRPASVPRP | 0.00118
42 | RRIRYRPPRLPRPRPRPMGIPRP | 0.00902
43 | RRIRVRPPRLPRPRPRPKHLPRP | 0.0232
44 | RRIRGRPPRLPRPRPRPFTWPRP | 0.725

Row | Sequence | shrunken log2 fold change
45 | RRIRHRPPRLPRPRPRPISSPRP | -0.202
46 | RRIRTRPPRLPRPRPRPPHGPRP | -0.228
47 | RRIRGRPPRLPRPRPRPMGFPRP | 0.315
48 | RRIRPRPPRLPRPRPRPEAVPRP | 0.216
49 | RRIRNRPPRLPRPRPRPLGDPRP | 0.218
50 | RRIRVRPPRLPRPRPRPDVPPRP | -0.0976
51 | RRIRQRPPRLPRPRPRPFKDPRP | -0.126
52 | RRIRERPPRLPRPRPRPSLHPRP | -0.309
53 | RRIRSRPPRLPRPRPRPIGYPRP | 0.0746
54 | RRIRKRPPRLPRPRPRPCNSPRP | -0.0179
55 | RRIRWRPPRLPRPRPRPRWYPRP | -0.0387
56 | RRIRFRPPRLPRPRPRPFMSPRP | -0.0532
57 | RRIRIRPPRLPRPRPRPYYDPRP | -0.0728
58 | RRIRIRPPRLPRPRPRPCDWPRP | 0.00175
59 | RRIRLRPPRLPRPRPRPKAIPRP | 0.0195
60 | RRIRDRPPRLPRPRPRPACIPRP | 0.194
61 | RRIRKRPPRLPRPRPRPETWPRP | 0.0991
62 | RRIRTRPPRLPRPRPRPQKKPRP | 0.0215
63 | RRIRIRPPRLPRPRPRPDPVPRP | -0.0546
64 | RRIRNRPPRLPRPRPRPSDQPRP | 0.0574
65 | RRIRNRPPRLPRPRPRPNWCPRP | 0.23
66 | RRIRKRPPRLPRPRPRPHCKPRP | -0.397

Row | Sequence | shrunken log2 fold change
67 | RRIRPRPPRLPRPRPRPMLKPRP | 0.0171
68 | RRIRRRPPRLPRPRPRPMQGPRP | 0.031
69 | RRIRVRPPRLPRPRPRPHNIPRP | -0.392
70 | RRIRTRPPRLPRPRPRPQFPPRP | -0.0282
71 | RRIRSRPPRLPRPRPRPVKAPRP | 0.0824
72 | RRIRTRPPRLPRPRPRPNYPPRP | -0.0192
73 | RRIRARPPRLPRPRPRPQDVPRP | -0.136
74 | RRIRKRPPRLPRPRPRPANCPRP | 0.0966
75 | RRIRLRPPRLPRPRPRPYALPRP | -0.141
76 | RRIRGRPPRLPRPRPRPAEGPRP | 0.335
77 | RRIRFRPPRLPRPRPRPTTYPRP | -0.608
78 | RRIRWRPPRLPRPRPRPDGGPRP | -0.0355
79 | RRIRKRPPRLPRPRPRPKPAPRP | 1.11
80 | RRIRSRPPRLPRPRPRPSNDPRP | -0.349
81 | RRIRWRPPRLPRPRPRPHHRPRP | -0.214
82 | RRIRQRPPRLPRPRPRPMLRPRP | -0.138
83 | RRIRNRPPRLPRPRPRPFFWPRP | 0.0463
84 | RRIRSRPPRLPRPRPRPCMGPRP | -0.403
85 | RRIRFRPPRLPRPRPRPGACPRP | -0.0223
86 | RRIRVRPPRLPRPRPRPHRLPRP | -0.0912
87 | RRIRYRPPRLPRPRPRPGNVPRP | 0.0571
88 | RRIRHRPPRLPRPRPRPHIGPRP | -0.0123

Row | Sequence | shrunken log2 fold change
89 | RRIRWRPPRLPRPRPRPLKLPRP | -0.225
90 | RRIRLRPPRLPRPRPRPPTRPRP | 0.677
91 | RRIRRRPPRLPRPRPRPNIAPRP | -0.109
92 | RRIRLRPPRLPRPRPRPGPPPRP | 0.445
93 | RRIRERPPRLPRPRPRPSAPPRP | 0.18
94 | RRIRFRPPRLPRPRPRPCGPPRP | 0.243
95 | RRIRVRPPRLPRPRPRPSEWPRP | -0.0811
96 | RRIRARPPRLPRPRPRPGAYPRP | 0.249
97 | RRIRNRPPRLPRPRPRPPVNPRP | -0.249
98 | RRIRIRPPRLPRPRPRPSTKPRP | -1.14
99 | RRIRVRPPRLPRPRPRPPAEPRP | 0.253
100 | RRIRFRPPRLPRPRPRPSALPRP | 0.0201
101 | RRIRVRPPRLPRPRPRPSPGPRP | 0.252
102 | RRIRTRPPRLPRPRPRPRGIPRP | -0.0284
103 | RRIRTRPPRLPRPRPRPWIEPRP | -0.042
104 | RRIRCRPPRLPRPRPRPGIQPRP | -0.248
105 | RRIRIRPPRLPRPRPRPEHWPRP | 0.168
106 | RRIRRRPPRLPRPRPRPAKLPRP | 0.0542
107 | RRIRVRPPRLPRPRPRPAEMPRP | 0.0714
108 | RRIRARPPRLPRPRPRPTLAPRP | 1.65
109 | RRIRFRPPRLPRPRPRPSIGPRP | -0.139
